Paper PMC5672800 (Journal of medicinal chemistry, 2017)
Non-standard residues stand in square brackets, D forms with d. dPhe(4-I) = N[C@H](Cc1ccc(I)cc1)C(=O)O; d2Nal = N[C@H](Cc1ccc2ccccc2c1)C(=O)O; Bta = N[C@@H](Cc1csc2ccccc12)C(=O)O; Tic = O=C(O)[C@@H]1Cc2ccccc2CN1

Experiments:
[1] = biological target: T1, mouse melanocortin-4 receptor (mouse, UniProt P56450 1-332); assay: radioligand binding
[2] = biological target: T2, mouse melanocortin-3 receptor (mouse, UniProt P33033 1-323); assay: radioligand binding
T2 sequence (P33033 whole entry): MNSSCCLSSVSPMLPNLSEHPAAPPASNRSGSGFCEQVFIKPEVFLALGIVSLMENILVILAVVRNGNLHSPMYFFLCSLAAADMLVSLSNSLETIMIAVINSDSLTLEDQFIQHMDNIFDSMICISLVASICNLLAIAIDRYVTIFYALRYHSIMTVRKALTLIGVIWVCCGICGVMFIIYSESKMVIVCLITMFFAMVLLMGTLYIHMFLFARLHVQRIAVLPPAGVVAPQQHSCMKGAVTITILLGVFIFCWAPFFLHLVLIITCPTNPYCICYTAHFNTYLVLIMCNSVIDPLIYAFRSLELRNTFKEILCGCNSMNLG

[3] = biological target: mouse melanocortin-5 receptor (mouse, UniProt P41149 1-325); assay: cell-based or functional assay
Sequence of mouse melanocortin-5 receptor (P41149 whole entry): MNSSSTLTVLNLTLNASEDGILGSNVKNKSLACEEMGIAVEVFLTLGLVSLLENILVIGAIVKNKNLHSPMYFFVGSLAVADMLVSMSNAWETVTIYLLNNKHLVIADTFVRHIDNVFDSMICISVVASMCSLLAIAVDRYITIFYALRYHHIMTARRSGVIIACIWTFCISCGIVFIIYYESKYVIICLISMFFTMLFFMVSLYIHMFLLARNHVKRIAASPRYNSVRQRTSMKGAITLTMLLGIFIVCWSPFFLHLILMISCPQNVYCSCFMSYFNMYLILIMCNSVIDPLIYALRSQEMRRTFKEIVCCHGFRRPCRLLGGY

[4] = biological target: mouse melanocortin-1 receptor (mouse, UniProt Q01727 1-315); assay: cell-based or functional assay
Sequence of mouse melanocortin-1 receptor (Q01727 whole entry): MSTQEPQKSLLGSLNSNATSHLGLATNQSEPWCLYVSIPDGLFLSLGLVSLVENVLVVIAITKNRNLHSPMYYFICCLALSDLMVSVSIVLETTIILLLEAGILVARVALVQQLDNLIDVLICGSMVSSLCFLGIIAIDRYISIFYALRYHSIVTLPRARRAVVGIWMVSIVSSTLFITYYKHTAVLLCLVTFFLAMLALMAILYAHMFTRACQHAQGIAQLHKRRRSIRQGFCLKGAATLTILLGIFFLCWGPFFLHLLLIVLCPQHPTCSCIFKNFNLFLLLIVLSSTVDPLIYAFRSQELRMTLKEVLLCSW

[5] = biological target: T1, mouse melanocortin-4 receptor; assay: cell-based or functional assay
[6] = biological target: T2, mouse melanocortin-3 receptor; assay: cell-based or functional assay

T1 sequence (P56450 whole entry): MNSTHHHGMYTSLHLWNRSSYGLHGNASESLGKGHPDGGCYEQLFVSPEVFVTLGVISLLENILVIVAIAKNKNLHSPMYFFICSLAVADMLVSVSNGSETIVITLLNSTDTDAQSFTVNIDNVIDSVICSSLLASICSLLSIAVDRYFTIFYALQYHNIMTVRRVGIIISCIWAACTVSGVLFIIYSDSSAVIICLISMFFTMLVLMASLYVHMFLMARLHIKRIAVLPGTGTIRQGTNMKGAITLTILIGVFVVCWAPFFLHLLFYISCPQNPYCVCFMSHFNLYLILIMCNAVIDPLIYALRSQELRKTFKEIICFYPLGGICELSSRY

B1: Ac-Arg-Arg-(pI)DPhe-DNal(2′)-NH2 (peptide)
chain: Ac-RR[dPhe(4-I)][d2Nal]-NH2
- IC50 [1]: 220 nM
- IC50 [2]: 440 nM
- cAMP AlphaScreen, HEK293 cells stably expressing the receptor: agonist EC50 [3]: 500 nM
- cAMP AlphaScreen, HEK293 cells stably expressing the receptor: agonist EC50 [4]: 280 nM
- cAMP AlphaScreen, HEK293 cells stably expressing the receptor: agonist EC50 [5]: > 100000 nM
- cAMP AlphaScreen, Schild analysis against NDP-MSH (blocks m5+m3): antagonist pA2 [5]: 6.4 -Log(Ki)
- cAMP AlphaScreen, HEK293 cells stably expressing the receptor: agonist EC50 [6]: 57 nM

B2: Ac-His-DPhe-Arg-Trp-NH2 (peptide)
peptide: Ac-H[dF]RW-NH2
- cAMP AlphaScreen, HEK293 cells stably expressing the receptor: agonist EC50 [3]: 3 nM

B3: Ac-His-Arg-(pI)DPhe-Tic-NH2 (peptide)
chain: HRFX
HELM: PEPTIDE1{[ac].H.R.[O=C([C@@H](Cc1ccc(I)cc1)N[*:1])[*:2]].[Tic].[am]}$$$$V2.0
SMILES: CC(=O)N[C@@H](Cc1c[nH]cn1)C(=O)N[C@@H](CCCNC(=N)N)C(=O)N[C@H](Cc1ccc(I)cc1)C(=O)N1Cc2ccccc2C[C@H]1C(N)=O
- IC50 [1]: 83 nM
- cAMP AlphaScreen, HEK293 cells stably expressing the receptor: agonist EC50 [3]: 17 nM
- cAMP AlphaScreen, HEK293 cells stably expressing the receptor: agonist EC50 [4]: 0.71 nM
- cAMP AlphaScreen, HEK293 cells stably expressing the receptor: agonist EC50 [5]: > 100000 nM
- cAMP AlphaScreen, Schild analysis against NDP-MSH (blocks m5+m3): antagonist pA2 [5]: 7 -Log(Ki)
- cAMP AlphaScreen, HEK293 cells stably expressing the receptor: agonist EC50 [6]: 40 nM

B4: compound 10 (peptide)
chain: Ac-RR[dPhe(4-I)][Bta]-NH2
- IC50 [1]: 93 nM
- cAMP AlphaScreen, HEK293 cells stably expressing the receptor: agonist EC50 [3]: 210 nM
- cAMP AlphaScreen, HEK293 cells stably expressing the receptor: agonist EC50 [4]: 56 nM
- cAMP AlphaScreen, Schild analysis against NDP-MSH (blocks m5+m3): antagonist pA2 [5]: 6.6 -Log(Ki)
- cAMP AlphaScreen, HEK293 cells stably expressing the receptor: agonist EC50 [6]: 160 nM

B5: compound 11 (peptide)
chain: Ac-HR[dPhe(4-I)][Bta]-NH2
- IC50 [1]: 275 nM
- cAMP AlphaScreen, HEK293 cells stably expressing the receptor: agonist EC50 [3]: 270 nM
- cAMP AlphaScreen, HEK293 cells stably expressing the receptor: agonist EC50 [4]: 70 nM
- cAMP AlphaScreen, Schild analysis against NDP-MSH (blocks m5+m3): antagonist pA2 [5]: 6.4 -Log(Ki)
- cAMP AlphaScreen, HEK293 cells stably expressing the receptor: agonist EC50 [6]: 460 nM

B6: compound 15 (peptide)
chain: Ac-FR[dPhe(4-I)][Bta]-NH2
- IC50 [1]: 850 nM
- cAMP AlphaScreen, HEK293 cells stably expressing the receptor: agonist EC50 [3]: 1300 nM
- cAMP AlphaScreen, HEK293 cells stably expressing the receptor: agonist EC50 [4]: 330 nM
- cAMP AlphaScreen, HEK293 cells stably expressing the receptor: agonist EC50 [5]: > 100000 nM
- cAMP AlphaScreen, Schild analysis against NDP-MSH (blocks m5+m3): antagonist pA2 [5]: 5.7 -Log(Ki)
- cAMP AlphaScreen, HEK293 cells stably expressing the receptor: agonist EC50 [6]: 930 nM

B7: Ac-Arg-Arg-(pI)DPhe-Tic-NH2 (peptide)
chain: RRFX
HELM: PEPTIDE1{[ac].R.R.[O=C([C@@H](Cc1ccc(I)cc1)N[*:1])[*:2]].[Tic].[am]}$$$$V2.0
SMILES: CC(=O)N[C@@H](CCCNC(=N)N)C(=O)N[C@@H](CCCNC(=N)N)C(=O)N[C@H](Cc1ccc(I)cc1)C(=O)N1Cc2ccccc2C[C@H]1C(N)=O
- IC50 [1]: 13 nM
- cAMP AlphaScreen, HEK293 cells stably expressing the receptor: agonist EC50 [3]: 8.8 nM
- cAMP AlphaScreen, HEK293 cells stably expressing the receptor: agonist EC50 [4]: 0.51 nM
- cAMP AlphaScreen, HEK293 cells stably expressing the receptor: agonist EC50 [5]: > 100000 nM
- cAMP AlphaScreen, Schild analysis against NDP-MSH (blocks m5+m3): antagonist pA2 [5]: 7.8 -Log(Ki)

B8: compound 22 (peptide)
chain: Ac-FR[dPhe(4-I)][Tic]-NH2
- IC50 [1]: 135 nM
- IC50 [2]: 2500 nM
- cAMP AlphaScreen, HEK293 cells stably expressing the receptor: agonist EC50 [3]: 200 nM
- cAMP AlphaScreen, HEK293 cells stably expressing the receptor: agonist EC50 [4]: 8 nM
- cAMP AlphaScreen, HEK293 cells stably expressing the receptor: agonist EC50 [5]: > 100000 nM
- cAMP AlphaScreen, Schild analysis against NDP-MSH (blocks m5+m3): antagonist pA2 [5]: 6.3 -Log(Ki)
- cAMP AlphaScreen, HEK293 cells stably expressing the receptor: agonist EC50 [6]: 610 nM

B9: compound 24 (peptide)
chain: Ac-[d2Nal]R[dPhe(4-I)][Tic]-NH2
- IC50 [1]: 43 nM
- cAMP AlphaScreen, HEK293 cells stably expressing the receptor: agonist EC50 [3]: 250 nM
- cAMP AlphaScreen, HEK293 cells stably expressing the receptor: agonist EC50 [4]: 7 nM
- cAMP AlphaScreen, Schild analysis against NDP-MSH (blocks m5+m3): antagonist pA2 [5]: 6.4 -Log(Ki)
- cAMP AlphaScreen, HEK293 cells stably expressing the receptor: agonist EC50 [6]: 600 nM

B10: compound 25 (peptide)
peptide: RRFF
HELM: PEPTIDE1{[ac].R.R.[O=C([C@@H](Cc1ccc(I)cc1)N[*:1])[*:2]].F.[am]}$$$$V2.0
SMILES: CC(=O)N[C@@H](CCCNC(=N)N)C(=O)N[C@@H](CCCNC(=N)N)C(=O)N[C@H](Cc1ccc(I)cc1)C(=O)N[C@@H](Cc1ccccc1)C(N)=O
- cAMP AlphaScreen, HEK293 cells stably expressing the receptor: agonist EC50 [3]: 340 nM
- cAMP AlphaScreen, HEK293 cells stably expressing the receptor: agonist EC50 [4]: 55 nM
